From paper doi:10.1101/2021.10.29.466147 (bioRxiv, 2021)

T1: Ycs4, HEAT-repeat subunit I of S. cerevisiae condensin (S. cerevisiae, UniProt Q06156 1-1176)
T1 sequence: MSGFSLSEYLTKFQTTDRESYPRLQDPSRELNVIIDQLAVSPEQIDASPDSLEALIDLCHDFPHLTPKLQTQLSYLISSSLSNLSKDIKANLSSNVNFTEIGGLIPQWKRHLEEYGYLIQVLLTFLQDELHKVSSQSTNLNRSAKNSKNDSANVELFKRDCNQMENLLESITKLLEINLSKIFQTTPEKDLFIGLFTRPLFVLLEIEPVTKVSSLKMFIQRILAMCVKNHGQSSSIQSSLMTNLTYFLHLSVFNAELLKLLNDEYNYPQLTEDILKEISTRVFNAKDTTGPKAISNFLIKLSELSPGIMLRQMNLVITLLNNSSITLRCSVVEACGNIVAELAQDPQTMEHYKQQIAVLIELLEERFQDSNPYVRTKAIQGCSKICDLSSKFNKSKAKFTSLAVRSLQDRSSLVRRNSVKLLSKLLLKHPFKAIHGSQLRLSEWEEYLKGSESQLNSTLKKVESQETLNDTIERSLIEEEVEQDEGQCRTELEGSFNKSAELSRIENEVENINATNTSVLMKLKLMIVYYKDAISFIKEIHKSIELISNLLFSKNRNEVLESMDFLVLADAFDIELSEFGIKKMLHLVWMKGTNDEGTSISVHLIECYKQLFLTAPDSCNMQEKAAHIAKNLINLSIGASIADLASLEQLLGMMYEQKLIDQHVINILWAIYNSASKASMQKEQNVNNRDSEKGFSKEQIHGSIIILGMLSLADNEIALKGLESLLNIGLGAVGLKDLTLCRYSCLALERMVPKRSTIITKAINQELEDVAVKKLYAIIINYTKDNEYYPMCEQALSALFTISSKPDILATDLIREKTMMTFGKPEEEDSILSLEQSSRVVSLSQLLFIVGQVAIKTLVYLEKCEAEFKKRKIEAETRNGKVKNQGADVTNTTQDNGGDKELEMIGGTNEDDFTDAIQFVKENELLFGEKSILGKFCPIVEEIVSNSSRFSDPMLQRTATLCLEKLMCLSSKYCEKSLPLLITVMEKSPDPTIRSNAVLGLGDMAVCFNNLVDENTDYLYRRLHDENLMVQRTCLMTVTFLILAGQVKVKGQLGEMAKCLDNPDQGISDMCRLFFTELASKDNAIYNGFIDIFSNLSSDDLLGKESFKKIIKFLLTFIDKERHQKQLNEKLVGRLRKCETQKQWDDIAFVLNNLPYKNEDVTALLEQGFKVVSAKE

T2: Ycg1, HEAT-repeat subunit II of S. cerevisiae condensin (S. cerevisiae, UniProt Q06680 1-1035)
T2 sequence (looked up): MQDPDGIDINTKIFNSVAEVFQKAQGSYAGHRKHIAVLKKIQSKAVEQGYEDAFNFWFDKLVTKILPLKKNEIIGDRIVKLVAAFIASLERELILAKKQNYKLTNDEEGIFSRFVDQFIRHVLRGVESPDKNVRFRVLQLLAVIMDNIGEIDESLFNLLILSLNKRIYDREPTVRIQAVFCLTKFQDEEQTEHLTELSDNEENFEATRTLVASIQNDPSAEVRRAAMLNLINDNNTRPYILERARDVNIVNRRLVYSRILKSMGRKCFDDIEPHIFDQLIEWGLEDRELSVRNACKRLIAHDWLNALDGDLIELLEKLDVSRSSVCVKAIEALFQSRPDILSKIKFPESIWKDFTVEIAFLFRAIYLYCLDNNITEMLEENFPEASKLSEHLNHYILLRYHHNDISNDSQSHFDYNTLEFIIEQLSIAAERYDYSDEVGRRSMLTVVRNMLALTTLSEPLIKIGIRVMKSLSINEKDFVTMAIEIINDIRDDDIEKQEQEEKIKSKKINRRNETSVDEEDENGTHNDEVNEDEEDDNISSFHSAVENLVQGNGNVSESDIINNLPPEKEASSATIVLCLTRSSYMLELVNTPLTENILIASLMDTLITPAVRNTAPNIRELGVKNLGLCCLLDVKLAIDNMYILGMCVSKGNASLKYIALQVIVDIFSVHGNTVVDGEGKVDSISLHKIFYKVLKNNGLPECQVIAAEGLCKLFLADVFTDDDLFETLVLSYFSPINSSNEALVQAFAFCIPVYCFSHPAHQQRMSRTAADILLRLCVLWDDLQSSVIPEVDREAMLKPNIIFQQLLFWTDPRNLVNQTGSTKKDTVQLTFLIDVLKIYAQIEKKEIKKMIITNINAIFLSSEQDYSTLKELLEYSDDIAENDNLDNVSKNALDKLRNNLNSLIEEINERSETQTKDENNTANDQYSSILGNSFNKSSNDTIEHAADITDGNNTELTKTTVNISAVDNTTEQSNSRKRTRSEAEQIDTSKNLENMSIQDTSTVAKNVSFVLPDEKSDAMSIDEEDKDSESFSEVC

B1: 50-bp dsDNA (cryo-EM) (dsDNA)
DNA 1: GTTGACAGTGTCGCAACCTGCACAGGCAAGCTGCTGAGTCTGGTGTAGAC
DNA 2: GTCTACACCAGACTCAGCAGCTTGCCTGTGCAGGTTGCGACACTGTCAAC
B2: Brn1-His12-HA3, kleisin subunit of S. cerevisiae condensin (natural protein)
chain: MTTQLRYENNDDDERVEYNLFTNRSTMMANFEEWIKMATDNKINSRNSWNFALIDYFYDLDVLKDGENNINFQKASATLDGCIKIYSSRVDSVTTETGKLLSGLAQRKTNGASNGDDSNGGNGEGLGGDSDEANIEIDPLTGMPISNDPDVNNTRRRVYNRVLETTLVEFETIKMKELDQELIIDPLFKKALVDFDEGGAKSLLLNTLNIDNTARVIFDASIKDTQNVGQGKLQRKEEELIERDSLVDDENEPSQSLISTRNDSTVNDSVISAPSMEDEILSLGMDFIKFDQIAVCEISGSIEQLRNVVEDINQAKDFIENVNNRFDNFLTEEELQAAVPDNAEDDSDGFDMGMQQELCYPDENHDNTSHDEQDDDNVNSTTGSIFEKDLMAYFDENLNRNWRGREHWKVRNFKKANLVNKESDLLEETRTTIGDTTDKNTTDDKSMDTKKKHKQKKVLEIDFFKTDDSFEDKVFASKGRTKIDMPIKNRKNDTHYLLPDDFHFSTDRITRLFIKPGQKMSLFSHRKHTRGDVSSGLFEKSTVSANHSNNDIPTIADEHFWADNYERKEQEEKEKEQSKEVGDVVGGALDNPFEDDMDGVDFNQAFEGTDDNEEASVKLDLQDDEDHKFPIRENKVTYSRVSKKVDVRRLKKNVWRSINNLIQEHDSRKNREQSSNDSETHTEDESTKELKFSDIIQGISKMYSDDTLKDISTSFCFICLLHLANEHGLQITHTENYNDLIVNYEDLATTQAAS

Assays:
[1] = molecular target: condensin holo complex Smc2-Smc4-Brn1-Ycs4-Ycg1, Walker B EQ mutant (Saccharomyces cerevisiae, UniProt P38989;Q12267;P38170;Q06156;Q06680 1-1170;1-1418;1-754;1-1176;1-1035, E1113Q;E1352Q); assay: cryo-EM
Sequence of condensin holo complex Smc2-Smc4-Brn1-Ycs4-Ycg1, Walker B EQ mutant (P38989 whole entry E1113Q, chain 1 of 2): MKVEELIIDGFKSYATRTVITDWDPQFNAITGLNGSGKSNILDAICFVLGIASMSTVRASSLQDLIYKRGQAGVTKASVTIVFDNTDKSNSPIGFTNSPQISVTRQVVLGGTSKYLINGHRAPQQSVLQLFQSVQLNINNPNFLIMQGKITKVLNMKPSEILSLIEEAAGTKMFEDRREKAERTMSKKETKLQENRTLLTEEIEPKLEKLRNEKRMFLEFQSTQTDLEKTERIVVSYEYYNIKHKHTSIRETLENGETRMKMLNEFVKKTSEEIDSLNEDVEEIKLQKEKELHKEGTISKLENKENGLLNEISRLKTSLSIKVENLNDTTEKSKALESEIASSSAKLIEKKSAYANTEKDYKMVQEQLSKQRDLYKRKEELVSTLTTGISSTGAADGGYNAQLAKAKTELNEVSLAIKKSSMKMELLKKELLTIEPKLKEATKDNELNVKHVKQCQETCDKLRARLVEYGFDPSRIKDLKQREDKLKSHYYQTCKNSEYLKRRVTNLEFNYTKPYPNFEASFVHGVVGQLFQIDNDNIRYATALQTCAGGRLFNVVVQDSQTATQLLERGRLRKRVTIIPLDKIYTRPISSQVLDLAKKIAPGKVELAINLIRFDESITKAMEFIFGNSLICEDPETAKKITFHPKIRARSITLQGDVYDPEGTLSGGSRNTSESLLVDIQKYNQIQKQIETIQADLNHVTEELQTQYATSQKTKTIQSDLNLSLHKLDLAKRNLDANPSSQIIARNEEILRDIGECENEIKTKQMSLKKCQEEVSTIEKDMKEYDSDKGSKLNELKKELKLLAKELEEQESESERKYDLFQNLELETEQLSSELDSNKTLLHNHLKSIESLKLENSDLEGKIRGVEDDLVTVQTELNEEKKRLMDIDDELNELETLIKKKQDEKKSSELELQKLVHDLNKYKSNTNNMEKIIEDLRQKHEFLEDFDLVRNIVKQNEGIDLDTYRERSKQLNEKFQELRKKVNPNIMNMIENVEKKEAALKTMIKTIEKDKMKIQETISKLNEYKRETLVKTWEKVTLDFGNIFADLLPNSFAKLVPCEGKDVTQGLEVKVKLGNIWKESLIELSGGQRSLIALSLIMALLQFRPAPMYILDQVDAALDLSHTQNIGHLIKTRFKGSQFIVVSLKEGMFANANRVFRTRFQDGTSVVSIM
Sequence of condensin holo complex Smc2-Smc4-Brn1-Ycs4-Ycg1, Walker B EQ mutant (Q12267 whole entry E1352Q, chain 2 of 2): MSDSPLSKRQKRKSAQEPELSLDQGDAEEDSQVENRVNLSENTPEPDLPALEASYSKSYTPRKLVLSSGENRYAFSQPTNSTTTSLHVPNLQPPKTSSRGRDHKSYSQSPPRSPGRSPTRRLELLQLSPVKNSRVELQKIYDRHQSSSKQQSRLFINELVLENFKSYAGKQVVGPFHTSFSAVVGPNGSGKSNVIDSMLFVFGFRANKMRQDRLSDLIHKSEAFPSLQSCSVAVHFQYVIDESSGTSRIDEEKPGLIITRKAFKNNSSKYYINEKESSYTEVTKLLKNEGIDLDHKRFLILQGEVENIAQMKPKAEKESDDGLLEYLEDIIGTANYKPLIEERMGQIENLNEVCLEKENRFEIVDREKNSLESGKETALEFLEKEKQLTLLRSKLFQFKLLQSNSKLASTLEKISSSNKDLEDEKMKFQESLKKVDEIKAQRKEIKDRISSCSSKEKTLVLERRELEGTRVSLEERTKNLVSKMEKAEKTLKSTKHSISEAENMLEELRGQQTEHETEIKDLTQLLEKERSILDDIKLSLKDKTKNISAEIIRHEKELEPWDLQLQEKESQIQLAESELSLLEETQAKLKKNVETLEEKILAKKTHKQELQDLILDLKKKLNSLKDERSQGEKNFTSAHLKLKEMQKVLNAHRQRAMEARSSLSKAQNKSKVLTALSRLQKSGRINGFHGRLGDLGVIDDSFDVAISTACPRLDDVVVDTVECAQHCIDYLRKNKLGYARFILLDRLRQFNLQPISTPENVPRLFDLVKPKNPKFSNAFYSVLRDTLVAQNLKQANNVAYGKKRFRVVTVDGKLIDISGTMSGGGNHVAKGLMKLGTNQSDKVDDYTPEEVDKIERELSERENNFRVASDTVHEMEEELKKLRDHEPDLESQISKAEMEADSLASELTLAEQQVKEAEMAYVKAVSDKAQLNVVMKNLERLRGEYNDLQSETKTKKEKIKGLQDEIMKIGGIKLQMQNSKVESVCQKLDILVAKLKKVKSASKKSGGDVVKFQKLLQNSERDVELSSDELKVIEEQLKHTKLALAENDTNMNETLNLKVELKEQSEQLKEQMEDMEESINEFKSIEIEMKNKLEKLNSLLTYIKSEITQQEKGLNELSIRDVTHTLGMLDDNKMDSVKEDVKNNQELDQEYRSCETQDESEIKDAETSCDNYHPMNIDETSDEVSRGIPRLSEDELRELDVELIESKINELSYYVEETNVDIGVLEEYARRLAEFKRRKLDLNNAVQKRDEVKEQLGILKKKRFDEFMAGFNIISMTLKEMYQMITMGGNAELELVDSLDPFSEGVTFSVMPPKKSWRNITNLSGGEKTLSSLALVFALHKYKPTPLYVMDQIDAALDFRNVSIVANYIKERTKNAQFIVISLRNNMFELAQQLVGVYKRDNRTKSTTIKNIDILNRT

[2] = molecular target: T1, Ycs4, HEAT-repeat subunit I of S. …; assay: cryo-EM structure
[3] = molecular target: T2, Ycg1, HEAT-repeat subunit II of S. …; assay: co-purification

Binder	binding result [1]	binding result [2]	binding result [3]
B1	binds	–	–
B2	–	binds	binds
